# Experimental data taken from patent US20220073920.
# Where two headings read alike, the source gives them in different places.
# Columns and labels:
# [1] = system: Human adenovirus type 2 whole virion (HAdV-2) (Human adenovirus 2); conditions: ELASA; DPBS + 3 mM MgCl2 + 20 mM NaCl (printed NaCl2), pH 7.4, room temperature; n=7
# [2] = system: Human adenovirus type 2 whole virion (HAdV-2) (Human adenovirus 2); conditions: ELASA; DPBS + 3 mM MgCl2 + 20 mM NaCl (printed NaCl2), pH 7.4, room temperature; n=6
Sequence,Kd [1],Kd [2]
GTGCCAGCTATGCCATTGGGCGGGTCGTCCAATTCGAGAGGTCCCCTAGCGTCTATCTCTGCTGC [aptamer 20],0.0759 µM,
GTGCCAGCTATGCCATTGGGGGACAATATCGCAGTGCATCTTCCTCTAGCGTCTATCTCTGCTGC [aptamer 10],,0.0036 µM
